The supplement of paper PMC9170038

Tested on: MS2 coat protein
Assay: apparent KD of MS2 coat protein; designed switch direction (-1 OFF switch, 1 ON switch): 1; higher = weaker reporter binding
Method in brief: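 For each design, the apparent KD is the median over clusters of curves fitted to normalised cluster fluorescence. Clusters held RNA switches with common flanks, transcribed on Illumina chips by stalled E. coli RNA polymerase. These were titrated with SNAP-549-labelled MS2 coat protein, doubling from 0.7 or 1.5 nM to 3 µM, without input, with 200 uM small-molecule ligand, or with an oligonucleotide input.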

[1] = Eterna round: R95, input ligand: FMN 200 uM
[2] = Eterna round: R95, input ligand: microRNA oligo, concentration not stated
[3] = Eterna round: R95, input ligand: none
[4] = input ligand: microRNA oligo, concentration not stated

| Sequence | apparent KD of MS2 coat protein [1] | apparent KD of MS2 coat protein [2] | apparent KD of MS2 coat protein [3] | apparent KD of MS2 coat protein [4] | apparent KD of MS2 coat protein (input ligand: FMN 200 uM) | apparent KD of MS2 coat protein (input ligand: none) |
| --- | --- | --- | --- | --- | --- | --- |
| GUCGGGCAAGCUUUUUUCUCGUAGUGUAAACAUGAGGAUCACCCAUGUGCUCGCCCUGGAUCUUUGGAUCGCAGAAA [Isxevevere] (puzzle: Sensor for hsa-mir-208a) | 57.5 nM | 34.9 nM | 64.5 nM | – | – | – |
| UAGUGAUUGCAAGGAUAUGCUUAUGUUUAAUUUUAUUUAUUAUCUAACAUGAGGAUCACCCAUGUGCAGAAGGUGCUUGAUUUG [JR_SSNG2_Sub074] (Eterna round: R96, puzzle: Same State NG 2) | – | – | – | 48.4 nM | – | – |
| GCUAGAAUUAAAGCCAACAUGAGGAUCACCCAUGUAUGUUGGCAGGAUAUCGUUUGCAAAGCAAACGAGAAGGGCCAUACUAGC [Mat - Same State NG 3 - JL Mod - D22] (Eterna round: R96, puzzle: Same State NG 3) | – | – | – | 87.5 nM | 33.4 nM | 118 nM |
| UUGAAGAAUUAAGGAUAUUGAGUACAUAUGUAAAACAUGAGGAUCACCCAUGUGGGUUGCGGUAUCGAGAAGGUAAAAUAAUAG [Mat - same State NG 2 - JL mod - D71] (Eterna round: R96, puzzle: Same State NG 2) | – | – | – | 79.6 nM | 74.5 nM | 81.6 nM |
| GCUCGGCUGAUGGCCCACAUGAGGAUCACCCAUGUGAGUGGGCAGGAUAUCUAGAUUAAGGAUGUAGAGAAGGGCCUACCGAGC [SameState NG3 #35] (Eterna round: R96, puzzle: Same State NG 3) | – | – | – | 106 nM | 443 nM | 244 nM |
| GUGGUCAGACAUGAGGAUCACCCAUGUGGAAUAAAUAAGGAGAAGGAUAUCUAAUAUAGGAUAUAAGAGAAGGUUUGGUUGGUG (Eterna round: R96, puzzle: Same State NG 3) | – | – | – | 63.2 nM | – | – |
| GCAGGGCCGGGCCCUGCAGACAUGAGGAUCACCCAUGUAACACAGGAUAUGACUGGGAUACCUGGUUAGAAGGGUGCGAAAGAA [Ustivetice] (Eterna round: R96, puzzle: Same State NG 3) | – | – | – | 645 nM | 299 nM | 57.4 nM |
| GGAAACAAGAGAGGAUAUGCAGAGGAUCACCCUGCAGAAGGCUCCCUAGAGAGGAUAUGCAGAGGAUCACCCUGCAGAAGGCUC [pwkr ssNG DX.25] (Eterna round: R96, puzzle: Same State NG 1) | – | – | – | 9.9 nM | 4.46 nM | 24.6 nM |
| AACAAUCUAUCUGAGGAUAUCAUGAAAUAUACAUGAGGAUCACCCAUGUGCAGGAAAACUGCAUAUGAGAAGGCAGAUAGAUUGA [salish99_ss2_r3_034] (puzzle: Same State 2) | 59 nM | 612 nM | 3190 nM | – | – | – |
| GUAGCAUACCGAGGAUAUUCAUAUAACAUGAGGAUCACCCAUGUAAGGCCACAUUAGUGGCCUUGGGAGAAGGCGGAAUGCUAC [Xeonanis - 20 Mod41] (Eterna round: R96, puzzle: Same State NG 2) | – | – | – | 63.5 nM | 11.7 nM | 77.1 nM |
| AGGCUCAGACGAGGAUAUACGUGGUCACAUGAGGAUCACCCAUGUCUCGAGCUUCGGCUCGAGGCGUAGAAGGCGUCUGAGCCA [SSNG2/6-A1] (Eterna round: R96, puzzle: Same State NG 2) | – | – | – | 201 nM | 152 nM | 268 nM |
| GCACAUGCACAUGAGGAUCACCCAUGUCCCGCGCCCAUUAGGGCGCGGUGGCCGCAAGUUUUUUGCUCGUCUUAUAA [BIOPHYS241_ElaineNg_2] (puzzle: Sensor for hsa-mir-208a version 2) | 29.4 nM | 21.3 nM | 38.8 nM | – | – | – |
| AAACUCGUUGAAGGAUAUCCGGCAGCUAACAAACCGUAACAUGAGGAUCACCCAUGUGUUAGAAAGGAGAAGGUCAGUGACCGG [Eternabot solution 34] (Eterna round: R96, puzzle: Same State NG 2) | – | – | – | 15.9 nM | 17.2 nM | 22.3 nM |
| UGAACCUUCACAGGAUAUCAUGCGAAAAUUGCGUGAGAAGGGUGGAUGUGGCGUUCAUAGUUGCACAUGAGGAUCACCCAUGUA [SameState NG1 #50] (Eterna round: R96, puzzle: Same State NG 1) | – | – | – | 212 nM | 257 nM | 134 nM |
| UUUAGUUGCGCGCAGGAUAUGUAUUAAUAUACAUGAGGAUCACCCAUGUGAGACCAAAUAGGUCUACAGAAGGGCGAAUCGCGAC [Laonerce - 29] (Eterna round: R96, puzzle: Same State 2) | – | – | – | 182 nM | 42.6 nM | 354 nM |
| UUCCACGUUGCACAGGAUAUCCAAGCCGUGACAUGAGGAUCACCCAUGUCUAGUAGGCGACUAAGGGAGAAGGGUGUUGUCGUGC [Biuser] (puzzle: Same State 2) | 10.8 nM | 10.1 nM | 10.1 nM | – | – | – |
